Where a chain is given by its changes, count along the chain named.
Columns and labels:
Experiment in all cases: SPR; basigin immobilised on a CM5 chip by amine coupling (850 RU); PfRH5 variant injected at 8-0.0625 uM, 120 s at 30 uL/min, 300 s dissociation; 20 C; 10 mM HEPES pH 7.4, 150 mM NaCl, 3 mM EDTA, 0.005% Tween-20, 2 mg/mL dextran, 1 mg/mL salmon sperm DNA; blank surface subtracted; global 1:1 interaction model
Conditions in all cases: both partners purified
[1] = biological target: T1, PfRH5 protein variant version 5.0 (native 3D7 PfRH5 sequence) (Plasmodium falciparum (3D7 clone), UniProt Q8IFM5 26-526, N-linked glycan(s): one or both of the N-X-T sequons starting at N38 and N214 are glycosylated)
T1 construct: The construct has an N-terminal BiP insect signal peptide (…); No cleavage site for the His6 tag is described; also called PfRH5 v5.0; v5.0; source: without the Con A step
T1 sequence: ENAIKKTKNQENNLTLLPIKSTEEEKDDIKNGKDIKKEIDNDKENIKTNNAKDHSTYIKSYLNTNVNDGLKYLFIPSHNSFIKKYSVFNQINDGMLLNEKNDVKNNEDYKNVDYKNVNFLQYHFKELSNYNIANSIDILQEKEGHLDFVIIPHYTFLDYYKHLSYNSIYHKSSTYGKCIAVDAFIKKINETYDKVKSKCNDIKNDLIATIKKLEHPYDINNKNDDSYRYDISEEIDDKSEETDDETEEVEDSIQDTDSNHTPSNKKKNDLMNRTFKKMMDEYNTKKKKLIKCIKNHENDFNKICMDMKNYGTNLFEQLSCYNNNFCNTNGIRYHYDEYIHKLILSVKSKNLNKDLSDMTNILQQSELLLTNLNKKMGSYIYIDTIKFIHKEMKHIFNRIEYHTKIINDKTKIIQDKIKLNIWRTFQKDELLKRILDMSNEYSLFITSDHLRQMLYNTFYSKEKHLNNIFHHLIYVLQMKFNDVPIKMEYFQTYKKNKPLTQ

[2] = biological target: T2, PfRH5 protein variant version 2.0 (3D7 sequence, four N-linked glycosylation sequons mutated Thr to Ala) (Plasmodium falciparum (3D7 clone), UniProt Q8IFM5 26-526, Thr to Ala in the sequon starting at N38 (position 40 worked out) | Thr to Ala …)
T2 construct: The construct has an N-terminal BiP insect signal peptide (…); No cleavage site for the His6 tag is described; also called PfRH5 v2.0; v2.0
T2 sequence: T1 sequence with T15A, T191A, T261A, T274A

[3] = biological target: T3, PfRH5 protein variant version 3.0 (3D7 sequence, four putative N-linked glycosylation sites mutated Asn to … (Plasmodium falciparum (3D7 clone), UniProt Q8IFM5 26-526, N38Q | N214Q | Asn to Gln at N284 | Asn to Gln at N297))
T3 construct: the four putative N-linked glycosylation sites (N38, N214, N284, N297) mutated Asn to Gln; The construct has an N-terminal BiP insect signal peptide (…); No cleavage site for the His6 tag is described; also called PfRH5 v3.0; v3.0
T3 sequence: T1 sequence with N13Q, N189Q, N259Q, N272Q

Measured: binding result

B1: recombinant basigin, immunoglobulin domains 1 and 2 of the short isoform (22-205) (domain or fragment)
chain: GAAGTVFTTVEDLGSKILLTCSLNDSATEVTGHRWLKGGVVLKEDALPGQKTEFKVDSDDQWGEYSCVFLPEPMGTANIQLHGPPRVKAVKSSEHINEGETAMLVCKSESVPPVTDWAWYKITDSEDKALMNGSESRFFVSSSQGRSELHIENLNMEADPGQYRCNGTSSKGSDQAIITLRVRSH
notes: additional glycine left at the N-terminus from the TEV cleavage site; basigin (CD147), immunoglobulin domains 1 and 2 of the short isoform, residues 22-205; numbers count on: the short isoform; basigin is spoken of as the red blood cell receptor of the human malaria parasite; also called CD147; PfRH5 receptor; not shown: His6, N-terminal, cleaved
binds: all assays above

Reference: article PMC4960544, “Production of full-length soluble Plasmodium falciparum RH5 protein vaccine using a Drosophila melanogaster Schneider 2 stable cell line system” (Scientific Reports, 2016)
